Measurements from patent US11306156.
Each block holds one substance with its values, some of them ahead of it.

Key:
[1] = target: D3H44 Fab heavy chain L124R_S186R, C-terminal ABD2-His6 tag; experiment: LCCA (co-expression, SPR read-out of light chain tags), L1:L2 DNA 1:3 normalised to 1:1; competitor m16
[2] = target: D3H44 Fab heavy chain L124R_Q179K, C-terminal ABD2-His6 tag; experiment: as above
[3] = target: D3H44 Fab heavy chain L124E_L143E_K145T, C-terminal ABD2-His6 tag; experiment: as above
[4] = target: D3H44 Fab heavy chain L124E_L143D_K145T, C-terminal ABD2-His6 tag; experiment: as above
[5] = target: D3H44 Fab heavy chain L124R_S186K, C-terminal ABD2-His6 tag; experiment: LCCA set 9451 (co-expression; SPR read-out of light-chain tags; L1:L2 DNA 1:3, normalized to 1:1); competing light chain m15
[6] = target: D3H44 Fab heavy chain L124R_Q179K, C-terminal ABD2-His6 tag; experiment: LCCA co-expression, SPR tag read-out; DNA 1:3 norm. to 1:1; competing light chain m11
[7] = target: D3H44 Fab heavy chain L124E_L143E_K145T, C-terminal ABD2-His6 tag; experiment: as above
[8] = target: D3H44 Fab heavy chain L124R_S186K, C-terminal ABD2-His6 tag; experiment: LCCA set 9473 (co-expression; SPR read-out of light-chain tags; L1:L2 DNA 1:3, normalized to 1:1); competing light chain m16
[9] = target: D3H44 Fab heavy chain L124E_L143E_K145M, C-terminal ABD2-His6 tag; experiment: LCCA set 9263 (co-expression; SPR read-out of light-chain tags; L1:L2 DNA 1:3, normalized to 1:1); competing light chain m14
[10] = target: D3H44 Fab heavy chain L124R_Q179K, C-terminal ABD2-His6 tag; experiment: LCCA set 9384 (co-expression; SPR read-out of light-chain tags; L1:L2 DNA 1:3, normalized to 1:1); competing light chain m17
[11] = target: D3H44 Fab heavy chain L124E_L143E_K145M, C-terminal ABD2-His6 tag; experiment: LCCA set 9259 (co-expression; SPR read-out of light-chain tags; L1:L2 DNA 1:3, normalized to 1:1); competing light chain m17
[12] = target: D3H44 Fab heavy chain L124E_L143E_K145M, C-terminal ABD2-His6 tag; experiment: LCCA (co-expression, SPR read-out of light chain tags), L1:L2 DNA 1:3 normalised to 1:1; competitor m13
[13] = target: D3H44 Fab heavy chain L124R_Q179K, C-terminal ABD2-His6 tag; experiment: as above
[14] = target: D3H44 Fab heavy chain L124E_L143D_K145T, C-terminal ABD2-His6 tag; experiment: as above
[15] = target: D3H44 Fab heavy chain L124E_L143D_K145M, C-terminal ABD2-His6 tag; experiment: as above
[16] = target: D3H44 Fab heavy chain L124R_S186R, C-terminal ABD2-His6 tag; experiment: LCCA set 9505 (co-expression; SPR read-out of light-chain tags; L1:L2 DNA 1:3, normalized to 1:1); competing light chain m15
[17] = target: D3H44 Fab heavy chain L124E_L143D_K145T, C-terminal ABD2-His6 tag; experiment: LCCA set 9217 (co-expression; SPR read-out of light-chain tags; L1:L2 DNA 1:3, normalized to 1:1); competing light chain m16
[18] = target: D3H44 Fab heavy chain L124E_L143E_K145M, C-terminal ABD2-His6 tag; experiment: LCCA set 9257 (co-expression; SPR read-out of light-chain tags; L1:L2 DNA 1:3, normalized to 1:1); competing light chain m15
[19] = target: D3H44 Fab heavy chain L124R_S186R, C-terminal ABD2-His6 tag; experiment: LCCA (co-expression, SPR read-out of light chain tags), L1:L2 DNA 1:3 normalised to 1:1; competitor m17
[20] = target: D3H44 Fab heavy chain L124R_S186K, C-terminal ABD2-His6 tag; experiment: as above
[21] = target: D3H44 Fab heavy chain L124E_L143E_K145T, C-terminal ABD2-His6 tag; experiment: as above
[22] = target: D3H44 Fab heavy chain L124E_L143E_K145M, C-terminal ABD2-His6 tag; experiment: LCCA co-expression, SPR tag read-out; DNA 1:3 norm. to 1:1; competing light chain m13
[23] = target: D3H44 Fab heavy chain L124R_Q179K, C-terminal ABD2-His6 tag; experiment: as above
[24] = target: D3H44 Fab heavy chain L124E_L143E_K145T, C-terminal ABD2-His6 tag; experiment: as above
[25] = target: D3H44 Fab heavy chain L124E_L143D_K145T, C-terminal ABD2-His6 tag; experiment: LCCA set 9214 (co-expression; SPR read-out of light-chain tags; L1:L2 DNA 1:3, normalized to 1:1); competing light chain m15
[26] = target: D3H44 Fab heavy chain L124E_L143D_K145M, C-terminal ABD2-His6 tag; experiment: LCCA set 9176 (co-expression; SPR read-out of light-chain tags; L1:L2 DNA 1:3, normalized to 1:1); competing light chain m15
[27] = target: D3H44 Fab heavy chain L124E_L143E_K145T, C-terminal ABD2-His6 tag; experiment: LCCA set 9298 (co-expression; SPR read-out of light-chain tags; L1:L2 DNA 1:3, normalized to 1:1); competing light chain m17
[28] = target: D3H44 Fab heavy chain L124R_S186R, C-terminal ABD2-His6 tag; experiment: LCCA set 9550 (co-expression; SPR read-out of light-chain tags; L1:L2 DNA 1:3, normalized to 1:1); competing light chain m14
[29] = target: D3H44 Fab heavy chain L124E_L143E_K145M, C-terminal ABD2-His6 tag; experiment: LCCA (co-expression, SPR read-out of light chain tags), L1:L2 DNA 1:3 normalised to 1:1; competitor m16
[30] = target: D3H44 Fab heavy chain L124R_S186K, C-terminal ABD2-His6 tag; experiment: as above
[31] = target: D3H44 Fab heavy chain L124E_L143E_K145T, C-terminal ABD2-His6 tag; experiment: LCCA (co-expression, SPR read-out of light chain tags), L1:L2 DNA 1:3 normalised to 1:1; competitor m13
[32] = target: D3H44 Fab heavy chain L124E_L143E_K145M, C-terminal ABD2-His6 tag; experiment: LCCA set 9266 (co-expression; SPR read-out of light-chain tags; L1:L2 DNA 1:3, normalized to 1:1); competing light chain m17
[33] = target: D3H44 Fab heavy chain L124E_L143E_K145T, C-terminal ABD2-His6 tag; experiment: LCCA set 9323 (co-expression; SPR read-out of light-chain tags; L1:L2 DNA 1:3, normalized to 1:1); competing light chain m14
[34] = target: D3H44 Fab heavy chain L124R_S186K, C-terminal ABD2-His6 tag; experiment: LCCA set 9488 (co-expression; SPR read-out of light-chain tags; L1:L2 DNA 1:3, normalized to 1:1); competing light chain m18
[35] = target: D3H44 Fab heavy chain L124R_S186K, C-terminal ABD2-His6 tag; experiment: LCCA co-expression, SPR tag read-out; DNA 1:3 norm. to 1:1; competing light chain m13
[36] = target: D3H44 Fab heavy chain L124E_L143D_K145T, C-terminal ABD2-His6 tag; experiment: as above
[37] = target: D3H44 Fab heavy chain L124E_L143E_K145T, C-terminal ABD2-His6 tag; experiment: LCCA set 9320 (co-expression; SPR read-out of light-chain tags; L1:L2 DNA 1:3, normalized to 1:1); competing light chain m18
[38] = target: D3H44 Fab heavy chain L124R_Q179K, C-terminal ABD2-His6 tag; experiment: LCCA set 9388 (co-expression; SPR read-out of light-chain tags; L1:L2 DNA 1:3, normalized to 1:1); competing light chain m17
[39] = target: D3H44 Fab heavy chain L124E_L143E_K145T, C-terminal ABD2-His6 tag; experiment: LCCA set 9316 (co-expression; SPR read-out of light-chain tags; L1:L2 DNA 1:3, normalized to 1:1); competing light chain m17

- H2L2:H2L1 normalized median ratio [1]: 8%
- H2L2:H2L1 normalized median ratio [2]: 4%
- H1L1:H1L2 normalized median ratio [3]: 89%
- H1L1:H1L2 normalized median scalar value ln(r1/f1) [3]: 2.08
- H1L1:H1L2 normalized median ratio [4]: 81%
- H2L2:H2L1 normalized median ratio (H2L1 part) [5]: 7%
- H2L2:H2L1 normalized median ratio (% (ratio normalized to 100)) [6]: 4
- H1L1:H1L2 normalized median ratio (% (ratio normalized to 100)) [7]: 89
- H1L1:H1L2 normalized median scalar value ln(r1/f1) [7]: 2.12
- H2L2:H2L1 normalized median ratio (H2L1 part) [8]: 7%
- H1L1:H1L2 normalized median ratio (H1L1 part) [9]: 88%
- H1L1:H1L2 normalized median scalar value ln(r1/f1) [9]: 1.95
- H2L2:H2L1 normalized median ratio (H2L1 part) [10]: 8%
- H1L1:H1L2 normalized median ratio (H1L1 part) [11]: 84%
- H1L1:H1L2 normalized median scalar value ln(r1/f1) [11]: 1.67
- H1L1:H1L2 normalized median ratio [12]: 85%
- H1L1:H1L2 normalized median scalar value ln(r1/f1) [12]: 1.77
- H2L2:H2L1 normalized median ratio [13]: 4%
- H1L1:H1L2 normalized median ratio [14]: 84%
- H1L1:H1L2 normalized median scalar value ln(r1/f1) [14]: 1.66
- H1L1:H1L2 normalized median ratio [15]: 85%
- H1L1:H1L2 normalized median scalar value ln(r1/f1) [15]: 1.76
- H2L2:H2L1 normalized median ratio (H2L1 part) [16]: 6%
- H1L1:H1L2 normalized median ratio (H1L1 part) [17]: 82%
- H1L1:H1L2 normalized median scalar value ln(r1/f1) [17]: 1.52
- H1L1:H1L2 normalized median ratio (H1L1 part) [18]: 84%
- H1L1:H1L2 normalized median scalar value ln(r1/f1) [18]: 1.65
- H2L2:H2L1 normalized median ratio [19]: 6%
- H2L2:H2L1 normalized median ratio [20]: 7%
- H1L1:H1L2 normalized median ratio [21]: 87%
- H1L1:H1L2 normalized median scalar value ln(r1/f1) [21]: 1.89
- H1L1:H1L2 normalized median ratio (% (ratio normalized to 100)) [22]: 88
- H1L1:H1L2 normalized median scalar value ln(r1/f1) [22]: 1.95
- H2L2:H2L1 normalized median ratio (% (ratio normalized to 100)) [23]: 4
- H1L1:H1L2 normalized median ratio (% (ratio normalized to 100)) [24]: 89
- H1L1:H1L2 normalized median scalar value ln(r1/f1) [24]: 2.08
- H1L1:H1L2 normalized median ratio (H1L1 part) [25]: 85%
- H1L1:H1L2 normalized median scalar value ln(r1/f1) [25]: 1.71
- H1L1:H1L2 normalized median ratio (H1L1 part) [26]: 83%
- H1L1:H1L2 normalized median scalar value ln(r1/f1) [26]: 1.62
- H1L1:H1L2 normalized median ratio (H1L1 part) [27]: 88%
Substance: D3H44 light chain Q124K_V133G_S176R_T178K, N-terminal HA or FLAG tag

- H2L2:H2L1 normalized median ratio (H2L1 part) [28]: 11%
- H1L1:H1L2 normalized median ratio [29]: 88%
- H2L2:H2L1 normalized median ratio [30]: 7%
- H1L1:H1L2 normalized median ratio [4]: 87%
- H1L1:H1L2 normalized median ratio [12]: 87%
- H1L1:H1L2 normalized median scalar value ln(r1/f1) [12]: 1.9
- H2L2:H2L1 normalized median ratio [13]: 7%
- H1L1:H1L2 normalized median ratio [31]: 90%
- H1L1:H1L2 normalized median scalar value ln(r1/f1) [31]: 2.15
- H1L1:H1L2 normalized median ratio (H1L1 part) [32]: 84%
- H1L1:H1L2 normalized median scalar value ln(r1/f1) [32]: 1.67
- H1L1:H1L2 normalized median ratio (H1L1 part) [33]: 91%
- H1L1:H1L2 normalized median scalar value ln(r1/f1) [33]: 2.34
- H2L2:H2L1 normalized median ratio (H2L1 part) [34]: 9%
- H1L1:H1L2 normalized median ratio (% (ratio normalized to 100)) [22]: 88
- H2L2:H2L1 normalized median ratio (% (ratio normalized to 100)) [35]: 7
- H2L2:H2L1 normalized median ratio (% (ratio normalized to 100)) [23]: 5
- H1L1:H1L2 normalized median ratio (% (ratio normalized to 100)) [24]: 91
- H1L1:H1L2 normalized median scalar value ln(r1/f1) [24]: 2.34
- H1L1:H1L2 normalized median ratio (% (ratio normalized to 100)) [36]: 87
- H1L1:H1L2 normalized median ratio (H1L1 part) [37]: 86%
- H1L1:H1L2 normalized median scalar value ln(r1/f1) [37]: 1.82
- H2L2:H2L1 normalized median ratio (H2L1 part) [38]: 8%
- H1L1:H1L2 normalized median ratio (H1L1 part) [39]: 88%
- H1L1:H1L2 normalized median scalar value ln(r1/f1) [39]: 2
Substance: D3H44 light chain Q124K_V133G_S176R_T178R, N-terminal HA or FLAG tag
